Measurements as given in US20250333497A1, “ACTIVATING ANTIBODIES OF RECEPTOR PROTEINS PLXDC1 AND PLXDC2” (THE REGENTS OF THE UNIVERSITY OF CALIFORNIA, priority 2022, published 2025).
Changes are numbered by the printed parent chain.

T1: full length PLXDC1 (PLXDC1-Full) (Homo sapiens, UniProt Q8IUK5)
T1 construct: expressed in transfected cells
T1 sequence (Q8IUK5 19-500): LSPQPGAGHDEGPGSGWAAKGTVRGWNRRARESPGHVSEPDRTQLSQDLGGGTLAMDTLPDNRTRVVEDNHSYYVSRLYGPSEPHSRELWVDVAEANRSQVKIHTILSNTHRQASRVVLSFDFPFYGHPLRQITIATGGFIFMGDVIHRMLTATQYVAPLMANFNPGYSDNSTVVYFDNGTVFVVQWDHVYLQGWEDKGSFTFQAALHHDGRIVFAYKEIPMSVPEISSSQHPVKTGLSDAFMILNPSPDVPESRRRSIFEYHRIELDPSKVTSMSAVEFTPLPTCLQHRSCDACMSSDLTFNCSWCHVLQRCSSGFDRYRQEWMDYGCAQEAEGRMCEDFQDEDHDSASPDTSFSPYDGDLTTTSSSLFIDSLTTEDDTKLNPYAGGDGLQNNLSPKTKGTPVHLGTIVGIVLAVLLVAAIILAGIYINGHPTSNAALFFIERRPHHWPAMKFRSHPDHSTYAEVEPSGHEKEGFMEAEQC

B1: A010: VH SEQ ID NO:176, VL SEQ ID NO:177; Domain A-binding PLXDC1-activating antibody (antibody, V domains shown)
VH: QVQLVQSGAEVKKPGSSVKVSCKASGGTFSDEAIHWVRQAPGQGLEWMGRIIPVLGIASYAQKFQGRVTITADESTSTAYMELSSLRSEDTAVYYCARGLSRRAFYFDYWGQGTLVTVSS
VL: DIQMTQSPSSLSASVGDRVTITCRASQTIGNYLNWYQQKPGKAPKLLIYVASSLQSGVPSRFSGSGSGTDFTLTISSLQPEDFATYYCQQSYRYPYTFGQGTKVEIK
B2: A004: VH SEQ ID NO:20, VL SEQ ID NO:21; Domain A-binding PLXDC1-activating antibody (antibody, V domains shown)
VH: QVQLVESGGGVVQPGRSLRLSCAASGFTFSDYGMHWVRQAPGKGLEWVAVISYEGSNEYYADSVKGRFTISRDNSKNTLYLQMNSLRAEDTAVYYCARGSEGSGFDVWGQGTLVTVSS
VL: B1 VL with T28R, G30S, V50A, R93S, Y94P
B3: A008: VH SEQ ID NO:116, VL SEQ ID NO:117; Domain A-binding PLXDC1-activating antibody (antibody, V domains shown)
VH: EVQLLESGGGLVQPGGSLRLSCAASGFTFSNYAMSWVRQAPGKGLEWVSAISGGGSRTYYADSVKGRFTISRDNSKNTLYLQMNSLRAEDTAVYYCAREARVLGYSLDYWGQGTLVTVSS
VL: B1 VL with T28R, N31K, V50A, R93S, Y96L
B4: A001: VH SEQ ID NO:38, VL SEQ ID NO:39; Domain A-binding PLXDC1-activating antibody (antibody, V domains shown)
VH: EVQLLESGGGLVQPGGSLRLSCAASGFTFSSYAMSWVRQAPGKGLEWVSTIYASGATTYYADSVKGRFTISRDNSKNTLYLQMNSLRAEDTAVYYCARLKLYHAAFDIWGQGTLVTVSS
VL: B1 VL with T28D, G30S, N31S, V50T, R93S, Y96L
B5: A005: VH SEQ ID NO:70, VL SEQ ID NO:71; Domain A-binding PLXDC1-activating antibody (antibody, V domains shown)
VH: B2 VH with E54D, N57R, E58K, D62N, E101Y, G102S, S103D
VL: B1 VL with T28S, G30S, N31R, P40T, V50G, R93S, Y94T
B6: A002: VH SEQ ID NO:82, VL SEQ ID NO:83; Domain A-binding PLXDC1-activating antibody (antibody, V domains shown)
VH: EVQLLESGGGLVQPGGSLRLSCAASGFTFKNYAMSWVRQAPGKGLEWVSAISASGGYTYYADSVKGRFTISRDNSKNTLYLQMNSLRAEDTAVYYCARGRWGAFDYWGQGTLVTVSS
VL: QSVLTQPPSVSGAPGQRVTISCTGSSSNIGSGYDVHWYQQLPGTAPKLLIYGNRNRPSGVPDRFSGSKSGTSASLAITGLQAEDEADYYCQSYDSSLKTWVFGGGTKLTVL
B7: A007: VH SEQ ID NO:112, VL SEQ ID NO:113; Domain A-binding PLXDC1-activating antibody (antibody, V domains shown)
VH: EVQLLESGGGLVQPGGSLRLSCAASGFTFRNYAMSWVRQAPGKGLEWVSSISGGGINTYYADSVKGRFTISRDNSKNTLYLQMNSLRAEDTAVYYCARVRSYSGPGYFDYWGQGTLVTVSS
VL: EIVMTQSPATLSVSPGDRATLSCRASRSVSSNLAWYQQKPGQAPRLLIYGASTRATGIPARFSGSGSGTEFTLTISSLQSEDFAVYYCQQYYNWPLTFGQGTKVEIK

These molecules were tested against T1, full length PLXDC1 (PLXDC1-Full) (assay: Domain A binding specificity: binding to full length PLXDC1 expressed in transfected cells). Conditions: antibodies of Table 3 tested for ability to bind Domain A.
Excerpt: (§1) The specific binding to Domain A of a PLXDC protein can be tested with a method described herein. In some embodiments, the method employs a PLXDC with the Domain A deleted. […] An example is Compound 369 as described above.
(§2) The Domain A-binding antibodies are 3-C11, 4-A8, 5-E2, 2-H2, 3-G6, 3-G7, 8-A7, 8-A9, 8-C9 and 8-D9.
(§3) Both full length PLXDC1 and Domain A deleted PLXDC1 (PLXDC1-dA) have an epitope tag on the N-terminus.

| binding to PLXDC1 | Molecule |
| --- | --- |
| able to bind PLXDC1 | B1 |
| able to bind PLXDC1 | B2 |
| able to bind PLXDC1 | B3 |
| able to bind PLXDC1 | B4 |
| able to bind PLXDC1 | B5 |
| able to bind PLXDC1 | B6 |
| able to bind PLXDC1 | B7 |

Same assay, conditions: transfected into a cell line that does not express PLXDC1; FIG. 3-4

| binding to full length PLXDC1 (PLXDC1-Full) | Molecule |
| --- | --- |
| only bound to full length PLXDC1 | B2 |
| only bound to full length PLXDC1 | B4 |
| only bound to full length PLXDC1 | B5 |
| only bound to full length PLXDC1 | B6 |
| only bound to full length PLXDC1 | B7 |

What follows are molecules tested against T2, Domain A-deleted PLXDC1 (PLXDC1-dA) (Homo sapiens, UniProt Q8IUK5) (assay: Domain A binding specificity: binding to Domain A-deleted PLXDC1 expressed in transfected cells). Conditions: antibodies of Table 3 tested for ability to bind Domain A.
T2 construct: expressed in transfected cells
Excerpt: as §1, §2, §3

| binding to PLXDC1 mutant with Domain A deleted | Molecule |
| --- | --- |
| not the mutant with Domain A deleted | B1 |
| not the mutant with Domain A deleted | B2 |
| not the mutant with Domain A deleted | B3 |
| not the mutant with Domain A deleted | B4 |
| not the mutant with Domain A deleted | B5 |
| not the mutant with Domain A deleted | B6 |
| not the mutant with Domain A deleted | B7 |

Same assay, conditions: transfected into a cell line that does not express PLXDC1; FIG. 3-4

| binding to Domain A-deleted PLXDC1 (PLXDC1-dA) | Molecule |
| --- | --- |
| did not bind to Domain A-deleted PLXDC1 | B2 |
| did not bind to Domain A-deleted PLXDC1 | B4 |
| did not bind to Domain A-deleted PLXDC1 | B5 |
| did not bind to Domain A-deleted PLXDC1 | B6 |
| did not bind to Domain A-deleted PLXDC1 | B7 |
